Reference: patent US6071715, “Nucleic acids encoding novel proteins which bind to retinoblastoma protein” (Board of Regents, The University of Texas System, dated 2000)

Molecular target: p56Rb, carboxyl terminus of the Rb protein (Homo sapiens (Human), UniProt P06400)
Experiment: native polyacrylamide gel of the purified proteins, silver stain

binding result: binds
B1: chimeric p48 protein containing a modified C-terminus, encoded by plasmid pET-48NB (other)
chain: MADKEAAFDDAVEERVINEEYKIWKKNTPFLYDLVMTHALEWPSLTAQWLPDVTRPEGKDFSIHRLVLGTHTSDEQNHLVIASVQLPNDDAQFDASHYDSEKGEFGGFGSVSGKIEIEIKINHEGEVNRARYMPQNPCIIATKTPSSDVLVFDYTKHPSKPDPSGECNPDLRLRGHQKEGYGLSWNPNLSGHLLSASDDHTICLWDISAVPKEGKVVDAKTIFTGHTAVVEDVSWHLLHESLFGSVADDQKLMIWDTRSNNTSKPSHSVDAHTAEVNCLSFNPYSEFILATGSADKTVALWDLRNLKLKLHSFESHKDEIFQVQWSPHNETILASSGTDRRLNVWDLSKIGEEQSPEDAEDGPPELLFIHGGHTAKISDFSWNPNEPWVICSVSEDNIMQVWQMAENIYNDEDPEGSVDPAANKARKEAELAAANAEQ
